{"source": "paper PMC5059719", "about": "“Tetrameric structure of the restriction DNA glycosylase R.PabI in complex with nonspecific double-stranded DNA” (Scientific Reports, 2016)", "binders": {"B1": {"name": "20 bp specific probe (GTAC) (dsDNA)", "DNA 1": "GCATAGCTGTACAGCTATGC", "DNA 2": "GCATAGCTGTACAGCTATGC"}, "B2": {"name": "20 bp nonspecific probe (same sequence as co-crystallization) (dsDNA)", "DNA 1": "GCACTAGTTCGAACTAGTGC", "DNA 2": "GCACTAGTTCGAACTAGTGC"}, "B3": {"name": "20 bp nonspecific probe without GT, TA, AC steps (dsDNA)", "DNA 1": "GCATCGATTCGAATCGATGC", "DNA 2": "GCATCGATTCGAATCGATGC"}, "B4": {"name": "20 bp nonspecific dsDNA (co-crystallization) (dsDNA)", "DNA 1": "GCACTAGTTCGAACTAGTGC", "DNA 2": "GCACTAGTTCGAACTAGTGC"}}, "key": {"R.PabI Y68F [1]": {"molecular_target": "T1, R.PabI Y68F (Pyrococcus abyssi, UniProt Q9V2B6 8-226, Y68F)", "T1 sequence": "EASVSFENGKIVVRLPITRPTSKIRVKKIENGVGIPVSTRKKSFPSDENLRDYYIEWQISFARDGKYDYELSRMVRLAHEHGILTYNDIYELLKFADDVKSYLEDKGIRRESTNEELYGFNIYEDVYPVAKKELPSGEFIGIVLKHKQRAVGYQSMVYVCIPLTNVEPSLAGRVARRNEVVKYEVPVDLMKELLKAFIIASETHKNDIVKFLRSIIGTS", "assay": "EMSA; dimer shift at low concentration, supershift at high; poly-dT competitor; EMSA: 0.1 uM DNA, 0.1-12.8 uM R.PabI dimer, 10 mM MES pH 6.0, 300 mM NaCl, 50 uM poly-dT (40 nt) competitor, 30 min at 4 C; 12% PAGE in 0.5x TBE at 4 C", "conditions": "protein: recombinant; chain copies: 2; label: 5'-fluorescein; blunt; self-complementary, 2 copies of S3"}, "R.PabI Y68F R70D D71R": {"molecular_target": "T2, R.PabI Y68F R70D D71R (Pyrococcus abyssi, UniProt Q9V2B6 8-226, Y68F;R70D;D71R)", "T2 sequence": "T1 sequence with R63D, D64R", "assay": "EMSA; similar to Y68F; poly-dT competitor; EMSA: 0.1 uM DNA, 0.1-12.8 uM R.PabI dimer, 10 mM MES pH 6.0, 300 mM NaCl, 50 uM poly-dT (40 nt) competitor, 30 min at 4 C; 12% PAGE in 0.5x TBE at 4 C", "conditions": "protein: recombinant; chain copies: 4; label: 5'-fluorescein; blunt; self-complementary, 2 copies of S1"}, "R.PabI Y68F R70D": {"molecular_target": "T3, R.PabI Y68F R70D (Pyrococcus abyssi, UniProt Q9V2B6 8-226, Y68F;R70D)", "T3 sequence": "T1 sequence with R63D", "assay": "EMSA; supershift only, about the same as Y68F; poly-dT competitor; EMSA: 0.1 uM DNA, 0.1-12.8 uM R.PabI dimer, 10 mM MES pH 6.0, 300 mM NaCl, 50 uM poly-dT (40 nt) competitor, 30 min at 4 C; 12% PAGE in 0.5x TBE at 4 C", "conditions": "protein: recombinant; chain copies: 4; label: 5'-fluorescein; blunt; self-complementary, 2 copies of S1"}, "R.PabI Y68F [2]": {"molecular_target": "T1, R.PabI Y68F", "assay": "EMSA; predominant supershift (tetramer), dimer band very weak; poly-dT competitor; EMSA: 0.1 uM DNA, 0.1-12.8 uM R.PabI dimer, 10 mM MES pH 6.0, 300 mM NaCl, 50 uM poly-dT (40 nt) competitor, 30 min at 4 C; 12% PAGE in 0.5x TBE at 4 C", "conditions": "protein: recombinant; chain copies: 2; label: 5'-fluorescein; blunt; self-complementary, 2 copies of S1"}, "R.PabI Y68F D71R": {"molecular_target": "T4, R.PabI Y68F D71R (Pyrococcus abyssi, UniProt Q9V2B6 8-226, Y68F;D71R)", "T4 sequence": "T1 sequence with D64R", "assay": "EMSA; dimer shift at 0.2-1.6 uM plus supershift; tetramerization inhibited; poly-dT competitor; EMSA: 0.1 uM DNA, 0.1-12.8 uM R.PabI dimer, 10 mM MES pH 6.0, 300 mM NaCl, 50 uM poly-dT (40 nt) competitor, 30 min at 4 C; 12% PAGE in 0.5x TBE at 4 C", "conditions": "protein: recombinant; chain copies: 2; label: 5'-fluorescein; blunt; self-complementary, 2 copies of S1"}, "R.PabI Y68F [3]": {"molecular_target": "T1, R.PabI Y68F", "assay": "EMSA; about the same binding as co-crystallization DNA; poly-dT competitor; EMSA: 0.1 uM DNA, 0.1-12.8 uM R.PabI dimer, 10 mM MES pH 6.0, 300 mM NaCl, 50 uM poly-dT (40 nt) competitor, 30 min at 4 C; 12% PAGE in 0.5x TBE at 4 C", "conditions": "protein: recombinant; chain copies: 2; label: 5'-fluorescein; blunt; self-complementary, 2 copies of S2"}, "R.PabI R32A E63A": {"molecular_target": "T5, R.PabI R32A E63A (Pyrococcus abyssi, UniProt Q9V2B6 8-226, R32A;E63A)", "T5 sequence": "T1 sequence with R25A, E56A, F61Y", "assay": "X-ray crystallography; 1.9 A; tetramer sandwiches dsDNA; 0.2 M calcium acetate, 0.1 M imidazole pH 8.0, 10% PEG8000; EMSA: 0.1 uM DNA, 0.1-12.8 uM R.PabI dimer, 10 mM MES pH 6.0, 300 mM NaCl, 50 uM poly-dT (40 nt) competitor, 30 min at 4 C; 12% PAGE in 0.5x TBE at 4 C", "conditions": "protein: recombinant; chain copies: 4; blunt; self-complementary, 2 copies of S1"}}, "note": "Residue numbers refer to the chain shown, from its start.", "data": [{"binder": "B1", "values": [{"measurement": "binding result", "setting": "R.PabI Y68F [1]", "value": "binds"}]}, {"binder": "B2", "values": [{"measurement": "binding result", "setting": "R.PabI Y68F R70D D71R", "value": "binds"}, {"measurement": "binding result", "setting": "R.PabI Y68F R70D", "value": "binds"}, {"measurement": "binding result", "setting": "R.PabI Y68F [2]", "value": "binds"}, {"measurement": "binding result", "setting": "R.PabI Y68F D71R", "value": "binds"}]}, {"binder": "B3", "values": [{"measurement": "binding result", "setting": "R.PabI Y68F [3]", "value": "binds"}]}, {"binder": "B4", "values": [{"measurement": "binding result", "setting": "R.PabI R32A E63A", "value": "binds"}]}]}
